Reference: FireProtDB (doi:10.1016/s0014-5793(98)01666-4)

B1: Parvalbumin alpha, P02625 (parent)
chain: MSMTDLLSAEDIKKAIGAFTAADSFDHKKFFQMVGLKKKSADDVKKVFHILDKDKSGFIEEDELGSILKGFSSDARDLSAKETKTLMAAGDKDGDGKIGVEEFSTLVAES

Variants of: B1
Settings: Rattus norvegicus; pH 7.4; Thermal; DSC; EDTA 10 mM; NaCl 0.20 M; transition: 2; reversible: yes; structure 1RTP; whole UniProt chain shown

| Variant | Tm [°C] | unfolding enthalpy (calorimetric) [kcal/mol] | unfolding enthalpy (van 't Hoff) [kcal/mol] |
| --- | --- | --- | --- |
| MSMTDLLSAEDIKKAIGAFTAADSFDHKKFFQMVGLKKKSADDVKKVFHILDKDKSGFIEEDELGSILKGFSSDARDLSAKETKTLMAAGDKDGDGKIGVEEFSTLVASS [E109S] | 41.8 | 62 | 63 |
